B1: 3907115: IMAGE clone protein: Shc1 (protein)
chain: MNKLSGGGGRRTRVEGGQLGGEEWTRHGSFVNKPTRGWLHPNDKVMGPGVSYLVRYMGCVEVLQSMRALDFNTRTQVTREAISLVCEAVPGAKGATRRRKPCSRPLSSILGRSNLKFAGMPITLTVSTSSLNLMAADCKQIIANHHMQSISFASGGDPDTAEYVAYVAKDPVNQRACHILECPEGLAQDVISTIGQAFELRFKQYLRNPPKLVTPHDRMAGFDGSAWDEEEEEPPDHQYYNDFPGKEPPLGGVVDMRLREGAAPGAARPTAPNAQTPSHLGATLPVGQPVGGDPEVRKQMPPPPPCPGRELFDDPSYVNVQNLDKARQAVGGAGPPNPAINGSAPRDLFDMKPFEDALRVPPPPQSVSMAEQLRGEPWFHGKLSRREAEALLQLNGDFLVRESTTTPGQYVLTGLQSGQPKHLLLVDPEGVVRTKDHRFESVSHLISYHMDNHLPIISAGSELCLQQPVERKL
B2: 3673003: IMAGE clone protein: Ephb3, Eph receptor B3 (protein, UniProt P54754 30-993, looked up)
Ephrin type-B receptor 3: LEETLMDTKWVTSELAWTSHPESGWEEVSGYDEAMNPIRTYQVCNVRESSQNNWLRTGFIWRREVQRVYVELKFTVRDCNSIPNIPGSCKETFNLFYYEADSDVASASSPFWMENPYVKVDTIAPDESFSRLDAGRVNTKVRSFGPLSKAGFYLAFQDQGACMSLISVRAFYKKCASTTAGFALFPETLTGAEPTSLVIAPGTCIANAVEVSVPLKLYCNGDGEWMVPVGACTCATGHEPAAKESQCRACPPGSYKAKQGEGPCLPCPPNSRTTSPAASICTCHNNFYRADSDSADSACTTVPSPPRGVISNVNETSLILEWSEPRDLGGRDDLLYNVICKKCRGSSGAGGPATCSRCDDNVEFVPRQLGLTERRVHISHLLAHTRYTFEVQAVNGVSGKSPLPPRYAAVNITTNQAAPSEVPTLHLHSSSGSSLTLSWAPPERPNGVILDYEMKYFEKSKGIASTVTSQKNSVQLDGLQPDARYVVQVRARTVAGYGQYSHPAEFETTSERGSGAQQLQEQLPLIVGSTVAGFVFMVVVVVIALVCLRKQRHGPDAEYTEKLQQYIAPGMKVYIDPFTYEDPNEAVREFAKEIDVSCVKIEEVIGAGEFGEVCRGRLKLPGRREVFVAIKTLKVGYTERQRRDFLSEASIMGQFDHPNIIRLEGVVTKSRPVMILTEFMENCALDSFLRLNDGQFTVIQLVGMLRGIAAGMKYLSEMNYVHRDLAARNILVNSNLVCKVSDFGLSRFLEDDPSDPTYTSSLGGKIPIRWTAPEAIAYRKFTSASDVWSYGIVMWEVMSYGERPYWDMSNQDVINAVEQDYRLPPPMDCPTALHQLMLDCWVRDRNLRPKFSQIVNTLDKLIRNAASLKVTASAPSGMSQPLLDRTVPDYTTFTTVGDWLDAIKMGRYKESFVGAGFASFDLVAQMTAEDLLRIGVTLAGHQKKILCSIQDMRLQMNQTLPVQV
B3: 3873932: IMAGE clone protein: MATK, megakaryocyte-associated tyrosine kinase (protein, UniProt P42679 1-507, looked up)
Megakaryocyte-associated …: MAGRGSLVSWRAFHGCDSAEELPRVSPRFLRAWHPPPVSARMPTRRWAPGTQCITKCEHTRPKPGELAFRKGDVVTILEACENKSWYRVKHHTSGQEGLLAAGALREREALSADPKLSLMPWFHGKISGQEAVQQLQPPEDGLFLVRESARHPGDYVLCVSFGRDVIHYRVLHRDGHLTIDEAVFFCNLMDMVEHYSKDKGAICTKLVRPKRKHGTKSAEEELARAGWLLNLQHLTLGAQIGEGEFGAVLQGEYLGQKVAVKNIKCDVTAQAFLDETAVMTKMQHENLVRLLGVILHQGLYIVMEHVSKGNLVNFLRTRGRALVNTAQLLQFSLHVAEGMEYLESKKLVHRDLAARNILVSEDLVAKVSDFGLAKAERKGLDSSRLPVKWTAPEALKHGKFTSKSDVWSFGVLLWEVFSYGRAPYPKMSLKEVSEAVEKGYRMEPPEGCPGPVHVLMSSCWEAEPARRPPFRKLAEKLARELRSAGAPASVSGQDADGSTSPRSQEP
B4: 3978518: IMAGE clone protein: Hck, hemopoietic cell kinase (protein, UniProt P08103 2-524, looked up)
Tyrosine-protein kinase HCK: GGRSSCEDPGCPRSEGRAPRMGCVKSRFLRDGSKASKTEPSANQKGPVYVPDPTSSSKLGPNNSNSMPPGFVEGSEDTIVVALYDYEAIHREDLSFQKGDQMVVLEEAGEWWKARSLATKKEGYIPSNYVARVNSLETEEWFFKGISRKDAERHLLAPGNMLGSFMIRDSETTKGSYSLSVRDFDPQHGDTVKHYKIRTLDSGGFYISPRSTFSSLQELVLHYKKGKDGLCQKLSVPCVSPKPQKPWEKDAWEIPRESLQMEKKLGAGQFGEVWMATYNKHTKVAVKTMKPGSMSVEAFLAEANLMKSLQHDKLVKLHAVVSQEPIFIVTEFMAKGSLLDFLKSEEGSKQPLPKLIDFSAQISEGMAFIEQRNYIHRDLRAANILVSASLVCKIADFGLARIIEDNEYTAREGAKFPIKWTAPEAINFGSFTIKSDVWSFGILLMEIVTYGRIPYPGMSNPEVIRALEHGYRMPRPDNCPEELYNIMIRCWKNRPEERPTFEYIQSVLDDFYTATESQYQQQP

Tests used:
[1] = tested on: pooled phosphopeptide:BSA conjugates (Pools A-D); experiment: Coded multiplex phosphopeptide binding assay with pooled peptide:BSA conjugates on 4 spots
From the text: To prepare the Multi-Spot IPR plates, in this example we made use of pools of the peptide:BSA conjugates to coat each of 4 spots per well in a 96 well plate. To achieve this we made the following pools; • Pool A; EGFR-pTyr1148, IkBa-24ppC, Myc-p58Tp62S. • Pool B; EGFR-pTyr992, EGFR-pTyr1148, Smad3C. • Pool C; EGFR-pTyr1068, IkBa-24ppC, Smad3C. • Pool D; EGFR-pTyr992, EGFR-pTyr1068, Myc-p58Tp62S.
This combination of the various peptides results in any single peptide being present in two pools. Each of these four pools is then spotted on to a unique spot in a 4 spot array. In this way any single binding protein with specificity for only one of the peptides would bind to two spots; the identity of the two spots would allow the identification of the peptide involved in the binding reaction.
Typically approximately 120 fmole of peptide:BSA conjugate in 0.25 μl was deposited on each spot of a 4-spot multi-array IPR plates using a BioDot Dispenser (Bio-Dot Inc., vIrvine Calif.). At this stage, the plates were dried then used or stored under desiccated condition. A few hours prior to usage, the plates were rehydrated and blocked with 3% BSA, in PBS.
To test the system the following EST clones IMAGE # 3491843, 4237375, 4398016, 4419252, 3872466, 3907115 were obtained. These clones express the following genes βTRCP1, βTRCP2, Grb2, PLCγ, CBP and Shc1, respectively. […] These DNAs were used to produce proteins as described in the Materials and Methods. Proteins were transferred to a well of the 4 spot peptide-coated and BSA blocked ECL plates. The binding assay (using Sulfo-TAG labeled streptavidin as a detection agent) was carried our according to the procedures described in Example 11.

[2] = tested on: autophosphorylation (phosphotyrosine); experiment: In vitro kinase library screen: autophosphorylation; type: biochemical
Protocol: Proteins were produced from DNA plasmids of Mock Luciferase, Promega, tyrosine kinase clone Spleen Tyrosine kinase (SYK, IMAGE ID# 3870426) and Eph receptor-A7 (EphA7, IMAGE ID# 3991628) (Incyte Genomics, CA) and immobilized on streptavidin or avidin coated NPT-IPR plates as described in the Example 7. To promote autophosphorylation in these immobilized and purified proteins, Mn++ ions were added in a 50 μl reaction containing 5 mM MgCl2, 5 mM MnCl2, 100 μM ATP, 25 mM Tris-HCl buffer pH 7.4, 0.05 mM Na3VO4, 0.004% TritonX-100, 2 mM DTT and EDTA-free protease inhibitor (Roche Molecular Biochemicals). This mixture was incubated with shaking at room temperature overnight to allow autophosphorylation. Following this incubation, wells were washed 2 times with TT-buffer and 2 times with water. Following this step, 50 ng Sulfo-TAG labeled anti-phosphotyrosine in buffer containing 25 mM Tris-HCl buffer pH 7.4, 5 mM MgCl2, 0.05 mM Na3VO4, 0.004% TritonX-100, 2 mM DTT and 0.05% IgG in a final volume of 50 μl was added followed by incubation at room temperature for 45 min. The unbound reagents were removed by one time washing with water, and the TAG label was detected in presence of 150 μl IPR assay buffer (0.4 mM Gly—Gly buffer, pH 7.8, 1 mM EDTA, 0.1 M TPA). The ECL signals were measured using an imaging plate reader.
(§1) Proteins were produced in an in vitro transcription and translation reaction as described in the Materials and Methods. […] The reaction was stopped by mixing with BB2 buffer. Biotinylated proteins from 50 μl of the mixture (representing 0.5 μl to 5 μl of TnT reaction) were immobilized onto streptavidin or avidin coated NPT-IPR plates by shaking at room temperature for 45 min. The activity of the immobilized protein towards pEY or autophosphorylation was further assayed by the methods described in examples 7 and 8.

[3] = tested on: pEY; experiment: In vitro kinase library screen: activity towards pEY; type: biochemical; conditions: 5 ul of expressed protein
Protocol: Proteins were produced in an in vitro transcription and translation reaction. […] The unbound components of the reaction containing endogenous kinases were removed by three washes with TT-buffer (25 mM Tris-HCl buffer pH 7.4 and 0.004% Triton), two five minutes washings with high-salt wash buffer (25 mM Tris-HCl buffer pH 7.4, 0.004% Triton, 1M NaCl and 5 mM DTT) and 3 more washes with TT-buffer. To these immobilized and purified proteins a tyrosine kinase substrate, 5 nM pEY (poly Glu-Tyr, Sigma, MO), was added in a 50 μl reaction solution containing 5 mM MgCl2, 5 mM MnCl2, 100 μM ATP, 25 mM Tris-HCl buffer pH 7.4, 0.05 mM Na3VO4, 0.004% TritonX-100, 2 mM DTT and EDTA-free protease inhibitor (Roche Molecular Biochemicals). This mixture was incubated with shaking at room temperature overnight to allow phosphorylation of the pEY substrate by the immobilized kinases. Following this incubation, 45 μl of this mixture was transferred to a streptavidin or avidin-coated NPT IPR plate coated with biotinylated anti-phosphotyrosine antibody (PY20, Zymed labs, CA) followed by incubation for 30 minutes at room temperature to allow the binding of the phosphorylated pEY substrate to the PY20 coated NPT plate. Following this binding step, 50 ng Sulfo-TAG labeled anti-phosphotyrosine in buffer containing 25 mM Tris-HCl buffer pH 7.4, 5 mM MgCl2, 0.05 mM Na3VO4, 0.004% TritonX-100, 2 mM DTT and 0.05% IgG was added followed by incubation at room temperature for 30 mm. The unbound reagents were removed by one time washing with water, and the TAG label was detected in presence of 150 μl IPR assay buffer (0.4 mM Gly-Gly buffer, pH 7.8, 1 mM EDTA, 0.1 M TPA). The ECL signals were measured using an imaging plate reader.
as §1

| Molecule | Code (pattern of positive spots) [1] | Peptide determined from code [1] | ECL signal, spot A ([1]; Pool A, EGFR-pTyr1148, IkBa-24ppC, Myc-p58Tp62S) | ECL signal, spot B ([1]; Pool B, EGFR-pTyr992, EGFR-pTyr1148, Smad3C) | ECL signal, spot C ([1]; Pool C, EGFR-pTyr1068, IkBa-24ppC, Smad3C) | ECL signal, spot D ([1]; Pool D, EGFR-pTyr992, EGFR-pTyr1068, Myc-p58Tp62S) | ECL signal [2] | HTS signal [3] |
| --- | --- | --- | --- | --- | --- | --- | --- | --- |
| B1 | A, B | EGFR-pTyr1148 | 260 | 318 | 24 | 26 |  |  |
| B2 |  |  |  |  |  |  | 10,540 | 1,174 |
| B3 |  |  |  |  |  |  | 27,372 | 47,477 |
| B4 |  |  |  |  |  |  | 301,418 | 184,534 |
